Measured values as given in a protein production outcome set (Wang et al. 2014).

assay: label from the status in PepcDB records

| Sequence | protein production |
| --- | --- |
| NLSELTPYILCSICKGYLIDATTITECLHTFCKSCIVRHFYYSNRCPKCNIVVHQTQPL | not failed |
| NNLFVYCEIEEGIVADVSLELLTKGRSLANELNCQLEAVVAGTGLKEIEKQILPYGVDKLHVFDAEGLYPYTSLPHTSILVNLFKEEQPQICLMGATVIGRDLGPRVSSALTSGLTADCTSLEIGDHEDKKEGKVYKNLLYQIRPAFGGNIVATIVNPEHRPQMATVREGVMKKEIVSPAYQGEVIRHDVKKYVADTDYVVKVIERHVEKAKNN | not failed |
| NPHMWWLQDADPENNSRQASPSQESINQLVYMGFDTVVAEAALRVFGGNVQLAAQTLAHHGGSLPPDLQF | not failed |
| NQLIRGRLVVGMVTACTVKPLFDALSAFHVAHPGIEITLTEDSSDRLVERVRAGAIDLALVGTATAPPDGLDAFPIISEGLVAAVPPGHPLAGRSRVTLAELGDHAIVCMPTGTGIRTVFDQACAAAGLRPDIALQASAPDAVADLAIRG | failed |
| NQPAYKDSSLSPEERAEDLLQQLTLEEKVALMMDNSKPVERLGIKPYNWWNEALHGVARSGLATVFPQPIGMAASFEPDAIHTIYTAVSDEARAKNAAYSAAGSYERYQGLTMWTPTVNIYRDPRWGRGIETYGEDPYLTSVMGVNVVKGLQCMDANQKYDKIHACAKHFAVHSGPEWNRHEFNAENIKPRDLHETYLVPFEALVKEAKVKEVMCAYNRLEGDPCCGSDRLLMQILRQDWGYDGIVLSDCGAIDDFYREKGHKTHPDAESASAAAVLSGTDLECGSSYKALVESAKKGLISEKDIDVSVKRLLKARFELGEMDDP | failed |
| NRFIGYIQVACCCLLLCASCVRDGMDEDCNSYVRFVYDYNLEYIDLFHKQATKMNLYVFDEKGVFVTELKEESGAFAPDYLMTLPGAMAGRRYIFVAWSGLYGESYDKVTLTPGVSTLEDLEVSVNNLKTRIGGGVVDRELHLLWHGKQTEVSPQYNNDITTVSLLKNTKKFRIIMQMLDDSSIHVDDYDFRIISPNGRYNHENGLLGDETDEKVEYTAYHTEDDPETGAIAELNTLRLMTDTENRLVITHKSSGNVILDIPLNKYLNALRLQQYADIPLQEYLDRADKHGIILFFKGMDGNGNYISVDVQINGWLIRKQEVD | not failed |
| NSFDSSNYFYGGNNICIINTKWGKHSGIGGYAEIIDTLVGNFTNISSWAKIGIRDHIHTNFLICDFVYKDNDHIMPPGISSFEDYWVKIGNDVWVGTNVTILRGVEVGDGAVIAAGSVVTKSIPPYAIVGGNPAKFIKWRFPFEVREKLLEIKWWDWDDDLIKEKKDYLQNLVGFDMDKYKIEYRKRKED | failed |
| NYNIYDHPKAAEDRKNTVLYLMHYHKRITDKQWEDAKKIDLKANLVNRTPEERQNIDTNQDSEYNSYVNFVKSELMNNKAFKDENLGNVLQSG | failed |
| PALPYAKSLAPVDLTDCSAQALETARQLGLLQRTKLIVMHVYDAAAAGMLNYAGVDKTSLDDYLVDTRTDAVRDLVRFLEPLRLDDVDYSTVVKEGAGPATDIIEAATELRPDLVVIGTHARRGAVRLLLSSVTEEVLRRLQRDILVVPVRDAGS | failed |
| PDRAWINRCRTLSEHTDKAVRAQLAAHPKATGLHVAAAVMDALTDGDQLLLGASNPVRDAALVSYPAPKIRVLSNRGVAGIDGTVSAAVGAALAYEEGRTVALLGDLTFLHDASGLLIGSGEPRPRDLTIVVANDDGGGIFELLEQGDPQYAGVFERVFGTPHGMDLAALCAAYRVEHHLVGLGELSTRLSAPEAPGDRGIRVLEVTTERSGLRELHAAVRAQL | failed |
| PECDWWALGVFAYEMFYGQTPFYADSTAETYGKIVHYKEHLSLPLVDEGVPEEARDFIQRLLCPPETRLGRGGAGDFRTHPFFFGLDWDGLRDSVPPFTPDFEGATDTCNFDLVEDGLTAMVSGGGETLSDIREGAPLGVHLPFVGYSYSCMALRDSEVPGPTPMEVEAEQLLEPHVQAPSLEPSVSPQDET | failed |
| PEQHRLRYQSLKQQLDDYYQEVTVQNYLDLTTRSHAFDQWLNNNIQLDWVKATVVKDAPDKIRAKANKEQHLNFQLIKHLEKPEDNVDLISAYFVPEKQGAKHLSDMAQDGIKVRVLTNSFKANDVPVVHAFYAKYRQELLENGVQLYEFLPTLEKEELDKYTDELVKKAKVSIKGLSRSSLHAKMMALDQKQVFIGSFNFDPRSAYLNTEIGVILNSPPLAMAVHQTMDQQLTHYAYKLVLDANHKINWYRQTS | failed |
| PFIMDAPRDLNISEGRMAELKCRTPPMSSVKWLLPNGTVLSHASRHPRISVLNDGTLNFSHVLLSDTGVYTCMVTNVAGNSNASAYLNVS | not failed |
| PFKESQARGLLQDNMANSYNGGDFEDGLLNLSKEVFPTDKYLYQDGQFLDKKTINAYLNPKYTKREIDKMSEKDKKDKKANENLGLNPSHEGETNPEKIAEKSPAYLSNILEQDFYGGGDTKGKNIKGMTIGLAMNSVYYYKKEKDGPTFSKKLDDSEVKKQGKQMASEILSRLRENDDLKDIPIHFAIYKQSSEDSITPGEFITQATAEKSQTKLNEWHNINEKSALLPSSTAADYDENLNNNFKQFNDNLQSYFSNFTQAVGKVKFVDKKPQRLVVDLPIDYYGQAETIGITQYVTEQANKYFDKIDNYEIRIKDGNQPRALISKTKDDKEPQVHIYSN | not failed |
| PGGPEEQWQRAIHERGEAVCPTCNVVTRKTLVGLKKHMEVCQKLQDALKCQHCRKQFKSKAGLNYHTMAEHSAKPSDAEASEGGE | not failed |
| PGMLYEFCLKPDGTMTFPYVSSGCLELIECSPQELQDDASLTFASTYPEDIIGLQEAIANSAKTLQNFEHEWRIITSSGQLKWVKGASRPERKPGGEITWYGYLLDVSEQQAALRERKQADQQLQQQAQLLQSIWEGVD | failed |
| PIKQSFLLKRSGNSLNKEWKKKYVTLSSNGFLLYHPSINDYIHSTHGKEMDLLRTTVKVPGKRPPRAISAFGPSASINGLVKDMSTVQMGEGLEATTPMPSPSPSPSSLQPPPDQTSKHLL | failed |

| Sequence | protein production |
| --- | --- |
| PKAPVTGYVRFLNERREQIRTRHPDLPFPEITKMLGAEWSKLQPAEKQRYLDEAEKEKQQYLKELWAYQQSEAYKVCTE | not failed |
| PKIAGIDLGTTYSSIGIYHAVTGETIILPDDLGKKSVPSVVAFLPNGTVLIGTRATEQQEHNPKRTIYDAKRFIGRNFEKNNKDFLSDQKRYPFKINLDSEGKAFFEIPLDSGTKNVYPEEIGSLIIGYLKSAAAKHLGVTLGQVVISCPAEFNEKQRNFTAKAAEIAEMEVRRVISEPTAAALAYGLHKKQGVENVVVVDLGGGTLDVSVLWLQGGVFVTQAMAGNNRLGGQDFNDRVQKHLISKIAEKFGKTIDNKEDIQQIRMEVEKGKIRLTNVPSTTISLNLKTVGKWNYELTRDEFETLNGDLLKAIELPITAALADANLDTADVDEIVLVGGSTQVPAVRKIVGRFFKKSANYGVDPELAVVTGASVQAGVIGGGWPLQVAAMELPAKRRKRHFFTEEQKENEKDRTISEL | not failed |
| PKTGPTMTKELVFSSNIGQHDLDTKSKQIQQWIEKKYHVQVTIKRRKDAEQSEEETEEIFNQILQTMPDIATFSSRPKAIRGGTASMCVFRHLSKKEEK | not failed |
| PLAGTITEADVRRYAASCCVQGVTTITDLHNDLADPTIEVYRSATSQADFGVRLVPALAAVSHTPEQAIAKLETLRGHASDKLHYGIVKLVVDGSIQGFTARLRWPGYHNGAANGLWYIAPEELPRLVEAYHRAGVQLHIHTNGDEATEVALDAIEAAQTVAPRPDHRHTLQHCQMASAAQFRRMKNLGVCANLFANHLYYWGDAHYELTMGPERAARLDATGTAQRIGVPFAIHSDAPVTPLAPLFTAWCAVNRVSSSGRVLGRDTEALTTEQALAAITIGAAYTLKMDHLVGSIETGKYADFVVLDEDPLAVPPERLKEIAVWGTVVGG | failed |
| PLLTEEALFGEDRHVLGEKGVVVRVFSDFQCPYCQRLAREVLPALKAMAREGRLRLAYRHFPLYEIHPEAVPAAVASECAAAQGAFWAYHDLLMAGSGWDYPALARRLGLDPKAFQACLEDPASRAPVEADRALAERLGLPGTPSVFVGPFRLPNPFDLERYRDYLALAEAL | failed |
| PLNRLGHKIYQHSGKWLQETAAEKLNQRDQLINPGHAQVLILGMGRIGTGAYDELRARYGKISLGIEIREEAAQQHRSEGRNVISGDATDPDFWERILDTGHVKLVLLAMPHHQGNQTALEQLQRRNYKGQIAAIAEYPDQLEGLLESGVDAAFNIYSEAGSGFARHVCKQLEPQFTSIK | not failed |
| PLPPPRALTLAAVTPRTVHLTWQPSAGATHYLVRCSPASPKGEEEEREVQVGRPEVLLDGLEPGRDYEVSVQSLRGPEGSEARGIRARTPT | not failed |
| PLQFHSVHGDNIRISRDGTLARRFESFCRAITFSARPVRINERICVKFAEISNNWNGGIRFGFTSNDPVTLEGTLPKYACPDLTNRPGFWAKALHEQYCEKDNILYYYVNGAGDVIYGINNEEKGVILTGIDTRSLLWTVIDIYGNCTGIEFLDSRIYMYQ | not failed |
| PMVLVVLDHDGNRLKKGSLEALTRARDLAQALGGKVAGVLLAEEKAPVEEARKYVEVLYTATLGPYTAEKWAAGVLKAAEASGAKAVVAPSSRQSRAYLGRVAYALRAGLLEDTLESRVEGGEVHATRYAYLNRVTQRVKAALPVVLTVKPNTTPLAEPLPGEAEAVALSVPEVPTVEVLERLQEEKKGVS | failed |
| PPKIRVVVRKRPISKKERERGDDDVVDVLAKNNTVVVNEEKVKVDLTKYLEKHAFKFDESLDENVSNEAVYQLTVGPLVRTLFRNGRASCFAYGQTGSGKTYTMSPLPIRASADIFTFMAQQQYRDISLCVSCFEIYGNKVFDLLNARKKLNILEDGKKKVVVVGLKEFGVDDVDGVKALIEESAKNRSTGSTAANADSSRSHSIMQFALKRAA | failed |
| PPLPLVYERIMLKGKGAMHSSTGLAIPASEIIDVMPPELLRFLIARVNPSRHIDFDP | failed |
| PQKKVIVLVHGLASSPEAWIALTNDIMGDNILREHYQVWQVFYSTNMPILESRFQIYALLKQAFDSLNPNDPADHNAVLIGHSMGGIISRLLVSQADISQKAFSLVSPYQQAQLKKQPMVYQRLKIQPIPNFDRAIFMSAPHHGTDFADLWFTRAARKIIKLPGAFLGAITDTVTNENIDAKDLLLRIDQGLIQNGPSDLSYKSKFIELTKNINPPSGFVFHSIIGNNTKSDDPEKITDGIVPYKSAHLEGSASEKIIQGGHSIQETPQAVLELRRILRLHLKEHQ | failed |
| PRFLFVHGWGFDRNFWEPVRRAIGQHNGDSLDFGYFGQSKLEYDWSQPFIAVGHSLGFLWLLQQPLAACIQLISINGFSRFFAGSDWPFGVPQRVTKRMQLALHRDAKKTLDQFYETVGFFDTSEKRYDLAALDNGLEFLMTQDNRSIAKKQAHKIAIMASDQDPIVPVSLTKACFPTPTPILWNKDGGHLLPITDPDSCANFIRDVVK | failed |
| PRTVKELTVSAGDNLIITLPDNEVELKAFVAPAPPVETTYNYEWNLISHPTDYQGEIKQGHKQTLNLSQLSVGLYVFKVTVSSENAFGEGFVNVTVKPAR | not failed |
| PVVVSEAGASVYSASEAAAREFPDMDVSLRGAVSIARRLQDPLAELVKIDPKAIGVGQYQHDVNQTALAKTLDAVVEDAVNAVGVDLNTASVPLLARVAGVSPTIAENIVHYRDEHGAFVNRTALKKVPRLGPKAFEQCAGFLRISGGKDPLDASAVHPEAYPVVRKMSEATGLSVEKLIGNSHVLSSLRPSDFA | failed |
| QDISQRKKEQEALAESESRFQELADLLPQPVFELDMKGNIIYTNSLGFQAFGYTKDDLEKGVSSLALFVPEDRETVLQNIENRLKNIPFENHEYTALRKDGTTFPILIYTARINRGGVPVGIRGIVLDITDRKQAEENLVQLNQNLELRVEERTRELEVTHQQMILQEKLASIGQLAAGIAHELNNPINFVRINFATLQEDVSDLHTLLKEYRLVTEKLEDR | failed |
